From article PMC5679380

Biological target: D-tagatose 3-epimerase from Rhodobacter sphaeroides (Rhodobacter sphaeroides)
Test: SEC; Superdex200 10/300 GL, 20 mM Tris-HCl pH 8.0, 100 mM NaCl, 1 mM dithiothreitol; 50 ug of purified RsDTE; six standard protein markers (6.5-158 kDa) for calibration

- stoichiometry N: 4
Substance: D-tagatose 3-epimerase from Rhodobacter sphaeroides (enzyme)
